B1: Zinc finger MYM-type protein 2, residues 463 to 506; numbered along this chain, Q9UBW7 (parent)
chain: IMNCCEQCGEYLPSKGAGNNVLVIDGQQKRFCCQSCVSEYKQVG

Variants of: B1
Test: abundance fitness (aPCA) (normalised: wild type 0, dead -1); higher = more abundant; growth selection in yeast, the domain comes from the species named
Conditions: Homo sapiens

Abundance fitness, by site and new letter:
G9: D -0.671, K -0.511, Q -0.067, V -0.563, P -0.68, E -0.495
D25: K -0.155, F -0.174, T -0.06, P -0.456, H 0.126, S -0.279
L22: Q -0.057, V -0.016, R -0.136, K -0.073, N -0.163, E 0.015
V21: D -0.014, P -0.402
Q42: N 0.438, E -0.102, G 0.076, L -0.101, T 0.002, K -0.045, W -0.398, V 0.151, S -0.023
G26: T -0.291, R -0.255, D 0.183, C -0.059, A -0.059, V -0.243, L -0.307, Q -0.083, Y 0.285, K -0.251
E10: M -0.656, D -0.197, H -0.224, T -0.751, W -0.4, Q -0.403, N -0.389, L -1.08, A -0.477
K29: I -0.241, P -0.499, G -0.234, T -0.313, W -0.432, R -0.06, H 0.051, C -0.752, S -0.329, Q -0.283, M -0.018
N3: E -0.036, T -0.249, A -0.09, Q -0.232, F -0.035, M -0.194, I -0.237, S -0.141
S38: C -0.108, I -0.106, G -0.024, H -0.183, T -0.113, M -0.038, D -0.081, P -0.329
M2: W -0.687, K 0.124, E 0.118, P -0.376, I -0.145, A -0.162, H -0.25, L -0.104, R -0.179
I24: S -0.09, P -0.126, C -0.124, K -0.079, M -0.122, T 0.254, N -0.176
V23: F 0.23, A -0.121, W -0.063, E 0.204, L -0.235, Y -0.093, R -0.011
P13: C 0.105, N -0.565, H -0.187, M -0.59, Q -0.063, T -0.094, G -0.278, V -0.669, L -0.438, E -0.171
L12: M -0.46, C -0.384, S -0.501, Y -0.444, P -0.14, E -0.004, N -0.482, A -0.246
C8: Y -0.311, M -1.1, S -0.337, F -1.18, P -0.775, R -0.611, H -0.233
Q28: G -0.239, I -0.038, T -0.032, H 0.117
C33: T -0.031, F -0.517, H -0.09, N -0.164, M -0.201, E 0.008, D 0.051, Q -0.086
C32: V -0.36, I -0.71, S -0.398, A -0.354, W -0.559, L -0.451, R -0.298, K -0.439, M -0.537
R30: V 0.197, S 0.111, T 0.132, E 0.3, F -0.088, P 0.092
C4: R 0.012, V -0.029, L -0.09, S 0.25, W -0.242, A -0.147, G -0.089, Q 0.142
Y11: C 0.035, V 0.117, Q 0.313, A 0.176, G 0.227, F -0.133, I -0.145, W -0.237, H 0.298, M -0.099
Y40: E 0.067, W 0.002, L -0.163, M -0.167, S 0.121, P 0.192
N19: S 0.001, F -0.023, I -0.141, E 0.338, C -0.069
Q7: K -0.135, A -0.09, D -0.466, R -0.019, G -0.137, C -0.034, W -0.214, L -0.226, H -0.076, N -0.436
N20: M -0.038, V -0.019, R -0.285, D -0.248, A -0.037, Y -0.065, C 0, K -0.209
G44: Q -0.471, L -0.262, E -0.172, R -0.058, T -0.118, P -0.217
E6: G -0.184, K -0.231, H -0.256
G18: E 0.302, P 0.007, A 0.015, W -0.197, T -0.377, M -0.214
E39: C 0.204, L -0.265, P -0.285, V 0.086, K 0.33, G 0.095, M 0.087
K15: Y 0.07, M 0.3, C -0.012, V 0.011, A 0.089, D 0.229, L -0.094
F31: S -0.231, L -0.248, V -0.373, R -0.366, P -0.223, D -0.167, W -0.498, K -0.719
I1: N 0.097, R -0.255, W -0.746, T -0.162, D 0.231, M 0.169, V 0
S14: P 0.33, Y -0.802, E 0.13, L -0.107, W -0.454, G -0.098
S35: W -0.114, F -0.226, Y -0.08, M -0.087, L -0.136, E 0.006, Q -0.065, P -0.058, C -0.113, G 0.024, I 0.024
A17: E 0.116, V -0.223, L -0.188, C -0.11
Q34: R -0.232, M 0.044, T -0.031, E 0.087, W -0.226, G -0.017, F -0.039, H 0.004, A 0.061
V37: E 0.109, T 0.049, P -0.135, W -0.093, R -0.112, F -0.259, C 0.018, Q -0.024
V43: G 0.039, M -0.218, Q -0.055, A 0.001, W -0.296, D -0.123
K41: S 0.027, F -0.285, P 0.014, Q 0.006, R 0.03
Q27: G -0.039, A -0.045, W -0.198, V -0.144
G16: W -0.319, H -0.249, T 0.202, S -0.047, P -0.175, A -0.06, M 0.007
C36: Q -0.201, L -0.423, D -0.262, S -0.45, G -0.303
C5: R -0.697, P -0.854, G -0.7, I -1.08, H -0.641

Reference: the Human Domainome abundance scans (Beltran et al. 2025)
